Results reported in patent US20180094062A1 (Hoffmann-La Roche, published 2018).
Several values for one entry are separate records, joined by “and”; a condition that tells them apart may be missing. Equal values may be shown once.

Legend:
[1] = biological target: T1, HER3 ECD-HRG complex (Heregulin-activated Her-3 ECD) (human, UniProt P21860 20-643); assay: SPR Biacore 3000, antibody captured, Biacore two-state model, apparent KD from ka1 and kd2, 25 C; apparent KD of the two-state model, kd2 / ka1
T1 construct: receptor-ligand complex made by preincubating HER3 ECD with a five-fold molar excess of Heregulin; also called Heregulin/Her-3 ECD; Heregulin-complexed Her-3 ECD
Procedure: (§1) A CM5 series sensor was mounted into the system and was normalized in HBS-ET buffer (10 mM HEPES pH 7.4, 150 mM NaCl, 3 mM EDTA, 0.005% w/v Tween 20) according to the manufacturer's instructions. The sample buffer was the system buffer supplemented with 1 mg/ml CMD (Carboxymethyldextran). The system operated at 25° C. 10000 RU RAM-Fey (relative units of Fey-fragment Rabbit Anti-Mouse IgG/Jackson Laboratories) were immobilized according to the manufacturer's instructions using EDC/NHS chemistry on all flow cells. The sensor was deactivated using 1M ethanolamine.

[2] = biological target: T1, HER3 ECD-HRG complex …; assay: SPR Biacore 3000, antibody captured, 25 C
Procedure: as §1

[3] = biological target: T2, recombinant Thermus thermophilus SlyD FKBP-Her3 (TtSlyD-FKBP-Her3); assay: SPR Biacore T100, antibody captured, 25 C, Langmuir fit
T2 construct: expressed in E. coli, the N-terminal methionine can be present or not; also called thermo SlyD-Her3; T.T.SlyD-Her3
T2 chain: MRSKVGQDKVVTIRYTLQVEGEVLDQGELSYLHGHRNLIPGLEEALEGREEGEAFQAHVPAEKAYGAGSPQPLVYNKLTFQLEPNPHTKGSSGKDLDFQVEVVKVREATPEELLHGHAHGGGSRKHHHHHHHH
Procedure: as §1, with “(Carboxymethyldextran, Sigma #86524).” for “(Carboxymethyldextran).”, “6500” for “10000”, “RAM-Fcγ” for “RAM-Fey”, “Fcγ-fragment RamlgG, GE Healthcare)” for “Fey-fragment Rabbit Anti-Mouse IgG/Jackson Laboratories)”, “all four” for “all”
(§2) Analytes in solution were injected at different concentration steps of 0 nM, 1.1 nM, 3.7 nM, 11.1 nM, 33.1 nM and 90 nM for 3.5 min. The dissociation was monitored for 15 min. Where possible, kinetic signatures were evaluated according to a Langmuir fit.

[4] = biological target: T3, human recombinant HER3 Extracellular Domain (HER3 ECD) (human, UniProt P21860 20-643); assay: as above
T3 construct: 68 kDa; also called human-Her3-ECD
Procedure: as §1, with “(Carboxymethyldextran, Sigma #86524).” for “(Carboxymethyldextran).”, “6500” for “10000”, “RAM-Fcγ” for “RAM-Fey”, “Fcγ-fragment RamlgG, GE Healthcare)” for “Fey-fragment Rabbit Anti-Mouse IgG/Jackson Laboratories)”, “all four” for “all”
as §2

[5] = biological target: T4, TtSlyD-Wildtype; assay: SPR Biacore T100, antibody captured, 25 C
T4 construct: scaffold without insert; N-terminal methionine can be present or not; also called T.T.SlyD-wt; wild type Thermus thermophilus SlyD protein
T4 chain: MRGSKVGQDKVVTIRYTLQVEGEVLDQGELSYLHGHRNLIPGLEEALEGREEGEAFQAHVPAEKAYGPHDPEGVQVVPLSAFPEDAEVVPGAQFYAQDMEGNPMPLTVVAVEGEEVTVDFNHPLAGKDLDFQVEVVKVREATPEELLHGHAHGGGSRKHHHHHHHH

[6] = biological target: T1, HER3 ECD-HRG complex …; assay: SPR Biacore 3000, antibody captured, Biacore two-state model, ka1, 25 C; ka1, first step of the two-state fit
Procedure: as §1

[7] = biological target: T2, recombinant Thermus thermophilus SlyD …; assay: SPR, antibody captured
Procedure: In all assay the test antibodies were captured. The system was under the control of the software version V1.1. The instrument buffer was HBS-EP (10 mM HEPES (pH 7.4), 150 mM NaCl, 1 mM EDTA, 0.05% (w/v) P20). The system operated at 25° C. 30 μg/ml Rabbit polyclonal antibody (RAM IgG, (Rabbit anti Mouse IgG with Fc gamma specificity) GE Healthcare) in 10 mM sodium acetate buffer (pH 4.5) was immobilized using EDC/NHS chemistry according to the manufacturer's instructions on the spots 1, 2, 4 and 5 in the flow cells 1, 2, 3 and 4. The sensor was saturated using 1M ethanolamine. In each flow cell, referenced signals were calculated using spots 1-2 and spots 5-4, spot 3 served as a blanc control. […] The antibody capture level (CL) in response units was monitored. […] Thereafter, the antibody-antigen complex dissociation signal was recorded for 5 min. […] The recorded signal shortly before the end of the injection of the antigen was denoted as binding late (BL) in response units. The recorded signal shortly before the end of the recording of the dissociation is denoted as stability late (SL) in response units. The dissociation rate constants were determined calculated The antibody-antigen complex stability in minutes was calculated with the following formula: […]. The Molar Ratio was calculated with the formula: MW (antibody)/MW (antigen) *BL (antigen)/CL (antibody). […]

[8] = biological target: T5, HER4 ECD peptide hairpin (β-hairpin of HER4), overlapping immobilized 15-mer peptides (human); assay: CelluSpots array of overlapping 15-mer peptides of the HER family hairpins, chemiluminescence
T5 construct: CelluSpots library of 15-mers as for HER3; cysteines replaced by serines; also called HER4 β-hairpin
T5 peptide: PQTFVYNPTTFQLEHNFNA

Kd [1]: 18 nM
MR (Molar Ratio) [2]: 1.1
Kd [3]: 1.6 nM and 2 nM
koff [3]: 0.00014 s⁻¹
kon [3]: 87000 M⁻¹ s⁻¹
Kd [4]: 1.08 nM and 1 nM
koff [4]: 5.32e-05 s⁻¹
kon [4]: 49300 M⁻¹ s⁻¹
binding result [5]: no binding (tested: 90 nM)
kon [6]: 45800 M⁻¹ s⁻¹
ratio Ka (Thermus thermophilus SlyD FKBP-Her3)/Ka (HER3-ECD) [7]: ≥ 1.5 ratio
ratio MR (Thermus thermophilus SlyD FKBP-Her3)/MR (HER3-ECD) [7]: ≥ 2 ratio
binding result [8]: no binding
B1: anti-HER3 antibody M-08-11 (antibody, V domains shown)
VH: QAYLQQSGAELMRPGASVRMSCQASGYTFTSYTIHWLKQTPRQGLEWIGAIYPRNGDFSYNQKFKDKASLTVDTSSSTAYMHLSSLTSEDSAVYFCARTINYGDWFAYWGQGTLVTVSA
VL: DIQMIQSPASLFVSEGETVIITCRASENIYSNLAWYHQKKGKSPQVLVYAAIKLADGVPLRFSGSGSGTQFSLKINSLQSEDFGSYYCQHFWGPPYTFGSGTNLEIK
notes: mouse monoclonal antibody from hybridoma, tested as hybridoma supernatant or as antibody; also called M-011
